The nature of this series: label from the status in PepcDB records.
For the sequence “MFAIRRRCRPRPGQFQHGWSGLPTHTVPQAGSIAPIGRVRPSSVGNVRPTPECNVLPSFGRSSTNPSFPMEPIEDLDVLAEDEVRQREADGEVDEDLDRVKHGYDATAGDKQVYIETYGCQMNVNDSGIVASVLEESGYGLTRDQAAADVVLLNTCAIRENAERKIRARLSMLRSEKEKRDGELMLGVLGCMAERLREKLLEQEDLVDVVVGPDAYRDLPQLLYEADATGQAAVNVELSKQETYEDIQPVRYDSNGVSAYVSIMRGCDNMCTFCVVPFTRGREESRPVTTILSEVARLAEEGYKEVTLLGQNVNSYHYTDADGTSVSFAELVDRVSRVSPEMRVRYSTSHPKDCTDDLLKVHRDRPNVCNYIHLPVQHGNTEVLDRMRRTYTREEYLALTERAKELCPGVSLSTDLIAGFCGETEAQHEDTLSLMEEVRYDHAYMFKYSERPQTYAARKYEDDVPEDTKQRRLEEIIELQNQHAKESNEAEVGRVHTVLVEGPSKKSDAQFFGRTDTNKGVVFDREDYEKGDYVRVRIEDCTSSTLLGTAIEKTTLEAAARTDSITTSPAVA”, the protein production entry is “failed”.

Consider “MFAPQGLAQFIKVNVTLENGEPVFIYTDANGQVCQGDITVTQAGTITYLLNDQTLKGLKFVGVGFVTPFDGIIDAVTISSDGMLVQLVDLDKTPGTTKFQFVLSNTANTLLVLSPDPQIINRPQN”, for which the protein production result is “not failed”.

Turning to “MFARTAIAPPFAAMAAGRIPNTHDSDMAEARPDSLTRSRAAKPAGEGAAFSPLYRQIKELLVQSLDRGEWKPGELIPSEIDLAARFQVSQGTVRKAVDELAAEHLLLRRQGKGTFVATHHEARVRYRFLRLAPDEEGEGGRAESRILECRRLRAPAEIARALELRAGETVVTIRRQLSMNHMPTVIDDLWLPGTHFRGLTLELLTASKAPLYGLFESEFGVSMVRADEKLRAVAASPEIAPLLGVEPGRPLLQVDRISYTYGDRPMEVRRGLYLTDHYHYRNSLN”, the protein production result is “failed”.

On to “MFAYSARLFLRPLWSDDLGVLLDLLDTASSRSGLLDSPDNDVTRYLRDNAARLIHENDVTRPHSGIFLRDGKEPRLIGITALAGKEAHFFCWIAPAFRGQGFATEASRLMLHFADEALRLPSLTAAYDHADAAAEKLLTKLGFSE”, for which the protein production result is reported as “failed”.

For the sequence “MFCTFFEKHHRKWDILLEKSTGVMEAMKVTSEEKEQLSTAIDRMNEGLDAFIQLYNESEIDEPLIQLDDDTAELMKQARDMYGQEKLNEKLNTIIKQILSISVSEEGEKELKSNRIFISWLRWPLFIRIGVIILCLILLFGQIIYILEPKQFTSVFEGIWWAVVTVSTVGYGDYVPHTPLGQAAGILLILSGASFVTAYFATLSAAAFSRQHRYIEGKVAYKGRDHIILIGWNEKTNRLLKDLQLGAPSKTVVLIDESLTEGPLIENVHFIRGHAADDGTLKRANITEAESVMITADQYKSETDADMLSVLTLLSVKGLNPLAYCIVEILTDRFVTNAERAGANQIIGTSEFISRAMLQHYQVKLRRLNSRTESS”, the protein production result is “failed”.

Turning to “MFDFLTHDMLAVVWFFLWCVIWGVYFIADSFSLGAGLLTPFIAADKVQRIQIQSSVGPFWGGNEVWLILAAGGTFAAFPLVFSKMFTFLYLPMMLLLIGLIARGISVEYLHKDDNPRIQQFLMWGWFAGSLLVSLVLGVAFANFFKGLEIASGGVYKGTLPGLFGPYALISGVLFVLMSVTSGALWINVKTEGAVAAKAGDLAKKSALLVLIFALVYLAYSFAGVEGFATNYSSMPVLYLLPVLAVGGAVLSVFFAKKGRAFPAFCSNLLAFLFIVEGGLASIYPYMLKSSISPEYGIDIFEAASSHMTLSVMLGGALVFVPIVIIYQLWAYTLFREKITETEQVEY”, the protein production entry is recorded as “failed”.

Regarding “MFDNDRLLLRVLLFGLLGASLWVLAPFWSALFWAAVLAFASWPLMRMLTRLLGGRESLAAGLLTLGWIVLVALPLIWLGFGLADNVRSLMELLKNLQVEGLPPPPSWMAGVPLIGDRLIGWWDSIDQQGVAFFYVLKPYVGEVGNWLLARSAKIGGGILELVLSLILIFFFYRDGPRLESIVHRALERLIGNRAEHYRDLVAGTVQRVVNGVIGTAAAQALLAWIGFMIAGVPGAMLLGLLTFACSLLMVPPLVWGPATAWLFFKGDYGHGVFLGLWGFFIISGVDNILKPYLISRGGNLPLVVVLLGVFGGLLAFGFMGLFLGPILLAVAYNLLSDWIASTPRTPPGEGRGPDA”, the protein production result is recorded as “failed”.

In the case of “MFDNLQRKFLNLIGIEIEEEDKPQESTKAKEENVKPKHETPKVVTIGKANQTEVTVYNLKLFDEVVKVCDALRENKIVVFNLEQVAEDHIQRIIDFVSGAVYVLDAKIHKVSKKIFVVVPRSIDLEVDEQLKEEFRTKGVFAWLK”, the protein production result is given as “failed”.

Consider “MFEISRSRAKAMRPFLALATATVMMLSLAACSSSDNSSTNAQGNTDVAVGGQRFSTADQETAKLGSDAQPGQFPRTVVHAAGTTEITTKPERVVVLDTGELDSVLSLGITPVGMTTTKGANPVPSYLADKVKDVERVGTINELNIEAIAALKPDLIIGSQLRADKLYPQLSDIAPTVFSIRPGSPWKENFLLVGEALGMEKEAEEKLNEYADRVAELKNNVPQNTEVSLVRFMPNKLRLYGNKSLIGVVLADAGLARPEKQNVDDLAVEISPENIDQAAGSVIFYTSYGKPDATGETAVVEGPAWKNLEAVAAGKAHRVNDDVWFLGLGPTGAMEIVSDLHDYLLKK”, for which the protein production result is on record as “failed”.

As to “MFFKQFYDKHLSQASYLIGCQKTGEAMIIDPIRDLSSYIRVADEEGLTITHAAETHIHADFASGIRDVAIKLNASIYVSGESDDTLGYKNMPNQTHFVQHNDDIYVGNIKLKVLHTPGHTPESISFLLTDEGAGAQVPMGLFSGDFIFVGDIGRPDLLEKAVKVEGSSEIGAKQMFKSIESIKDLPNYIQIWPGHGAGSPCGKSLGAIPTSTLGYEKQTNWAFSENNEATFIDKLISDQPAPPHHFAQMKKINQFGMNLYQPYTVYPATNTNRLTFDLRSKEAYHGGHIEGTINIPYDKNFINQIGWYLNYDQEINLIGEYHLVSKATHTLQLIGYDDVAGYQLPQSKIQTRSIHSEDITGNESHILDVRNDNEWNNGHLSQAVHVPHGKLLETDLPFNRNDVIYVHCQSGIRSSIAIGILEHKGYHNIINVNEGYKDIHLSLEHHHHHH”, the protein production result was “failed”.

As to “MFFTDWEGPWILTDFALELCMAVFNNARFFSNLSEYDDYLAYEVRREGYEAGYTLKLLTPFLAAAGVKNRDVERIAELSAKFVPDAEKAMATLQERWTPVVISTSYTQYLRRTASMIGVRGELHGTEVDFDSIAVPEGLREELLSIIDVIASLSGEELFRKLDELFSRSEVRKIVESVKAVGAGEKAKIMRGYCESKGIDFPVVVGDSISDYKMFEAARGLGGVAIAFNGNEYALKHADVAIISPTAMSEAKVIELFMERKERAFEVLSAVSIPETEIYIMENSDFGEVLEKSKRMRVRLRGLAGELG”, the protein production result is on record as “not failed”.

Consider “MFGFLRSTTSNDNTLSDTQVNESYRYWRLHIMIGMYIGYAGFYFTRKTFNYAAPAMITDLGLDKGDLGLIGTLFYISYGLSKFLSGTISDRSNPRYFMGLGLIATGLINIAFGFSSSLAAFISLWVLNAWFQGWGWPSCSKLLTTWYSRSERGFRWAIWNTAHNIGGALIPILVGYLTLHYSWREGFILPGIIGVAIGLIVCWRLRDKPTTMGLPSVGKWRNDPLELAQENHGQGLSYREILKTYVFSNKYIWLLAFSYVLVYIVRTAVNDWGNLYLTEEHNYSLINANAALSLFEIGGFVGSLVAGWGSDKLFGGNRGPMNILFAIGIFLSVSALWLMPLTNFVFQAAGLFSVGFFVFGPQMLIGMAAAECSHKDSAGAATGFVGLFAYMGAALSGYPLAVILETYGWTGFFITISTCAAVIGLLLLPFLQAQSPQKPIETRVRL”, for which the protein production result is “failed”.

For “MFGTPSSSPSFGTPSSTPAFGTSSPAFGTPSATPAFGTPSNPSFSSGGFGSSLFSSPFSSQQPQQQQQQQQQQQPSSLFQQQPSSNFGFQSPFNNTAQQQQQTPFPNAQLTTQMAPVAPIPYSLADRDVQAIIEAYKEDPTNPKYAFQHLLFSVTEPQYRVKPAAVSDIMWAEAMSKLEGMDSTERERLWPQLVQGFKDLSQRLKLQDEVLVSDRDRIKTTQSNVKMLQRHLQASTFPSIERLRQKEQSLQRRMLRVMRIIEGLEGKGFRLPLTKGEAELSEKLTAITRQVKGPGAELSRRVQSLQTISRAQANSIAAGSSLYLPGSTKIDEQSLIDMQEVLQQETEAIGRLGNVLKRDMRDMEIMVAEDTEMALDS”, the protein production result is reported as “failed”.

In the case of “MFHVSFRYIFGLPPLILVLLPVASSDCDIEGKDGKQYESVLMVSIDQLLDSMKEIGSNCLNNEFNFFKRHICDANKEGMFLFRAARKLRQFLKMNSTGDFDLHLLKVSEGTTILLNCTGQVKGRKPAALGEAQPTKSLEENKSLKEQKKLNDLCFLKRLLQEIKTCWNKILMGTKEH”, the protein production result was “failed”.

Consider “MFIGGAIISFLFLFGYMWKEAHSNRIRHVTLSFPHFPDNGPPLTIFFISDIHRRSVSCRMLETVKGKADLVVIGGDLAEKGVPAARVRENVRRLQTVAPVYFVWGNNDDEVDYDLQSLLEEERVYVLKNKAEVWEHGGVPIALIGVGDVSRKEADIARALEHVPPESFRILACHNPAIIARLEDEQHISLVLSGHTHGGQIRLFSFGLYEKGGLKWHGNTALFTSNGYGTTGVPLRLGAPAETHLIKIVPGKLATEKLEHHHHHH”, for which the protein production entry is “not failed”.

On to “MFIGIVSLFLTVLVYLGAKKVYQRFPRVYTSPLLVTPAVLVGLLLLVNVPYESYNLGGGLLTDMLQPATVAFAIPLYKYFPVLKKYAVEIILNVAVGSCIAIISTALIAKWLHLGTGLIDSLVPRSVTTPIAVHVSEMIGGMPAVTAVFVILTALLGTVIGPMVIRYFRIDNEIARGVLLGTSAHGAGTSKAFELSSVSGTISSVSMILAAIMTLWPAPFCFHLCKKLSSRGQFFLCASPY”, for which the protein production result was “failed”.

“MFILSAQRLSGTQVFRRLAEGCTGYSVSSGCRQRRRCCPGAPQRPRRVRVNALQLQSGLADPLDPKSEAEVREHLRSNSPAERALGINYARYLDESTRYDILLEMMEDTDPQVRYAAVTQLATVGSHDRQRTLKAVRKILWNTEEDASVRAGAADVLGGLRFHEAFPDLEKLFHESKDWVVRFSIIAALGEMGVREAFPILVEALHANKEPLVQLAAIGALGELGDERARVYLEPLVNSSDASIVERARFALDALDARGSERT”: the protein production result is listed as “not failed”.

As to “MFITLLLFFLSAAIIYFACEFFVNGVEWVGHRFKLGATATGTVLAAFGTALPESAVTFMAVVFGTTPEQKDIGVGAAMGGPLVLATLAYAVVGLTLARTRRAGSSQVEAAINADQRRLARDQAWFMGVFVFKVALGLLAFAWKPWLGLLFLAVYGLYVKRELTREEECLDCEDLEPLKLRPRDPSPSLFWACAQTVLALAVIALASHVFVRQIELLGLAMGASPHVAALLLAPVATELPEIMNALIWVRQGKERLALANISGAMMIQATIPSAMMIQATIPSALGIFLTPWLLDAPLLAAGGFTLAAILLLWLRFRRAAMSVPALSAVGGLYALFAGYLGWHFYA”, the protein production result is “failed”.

With “MFKDGSLIPYLTAGDPDKQSTLNFLLALDEYAGAIELGIPFSDPIADGKTIQESHYRALKNGFKLREAFWIVKEFRRHSSTPIVLMTYYNPIYRAGVRNFLAEAKASGVDGILVVDLPVFHAKEFTEIAREEGIKTVFLAAPNTPAERLKVIDDMTTGFVYLVSLYGTTGAREEIPKTAYDLLRRAKRICRNKVAVGFGVSKREHVVSLLKEGANGVVVGSALVKIIGEKGREATEFLKKKVEELLGI”, the protein production result is “not failed”.

(Values after a protein production outcome set (Wang et al. 2014).)
